Laboratory results published in paper PMC4982705 (Biochemical pharmacology, 2016).

Biological target: the molecule itself
Test: SEC

B1: wildtype human SULT1B1 (enzyme)
chain: not shown
  stoichiometry N: 2
